# Biological target: 肿瘤细胞SKBR3表面的Her2抗原 (UniProt P04626 23-1255, limits assumed)
# Assay: cell-based or functional assay
row,Binder,"对SKBR3细胞的杀伤 EC50浓度 (CTL, LDH release, PBMC effector cells) [ng/mL]"
1,"抗Her2×抗CD3双特异性抗体MutC (bispecific antibody, human IgG1, kappa) heavy 1: EVQLVESGGGLVQPGGSLRLSCAASGFTFNTYAMNWVRQAPGKGLEWVARIRSKYNNYATYYADSVKDRFTISRDDSKNSLYLQMNSLKTEDTAVYYCARHGNFGNSYVSWFAYWGQGTLVTVSSISSASTKGPSVFPLAPSSKSTSGGTAALGCLVKDYFPEPVTVSWNSGALTSGVHTFPAVLQSSGLYSLSSVVTVPSSSLGTQTYICNVNHKPSNTKVDKKVEPKSCDKTHTCPPCPAPELLGGPSVFLFPPKPKDTLMISRTPEVTCVVVDVSHEDPEVKFNWYVDGVEVHNAKTKPREEQYNSTYRVVSVLTVLHQDWLNGKEYKCKVSNKALPAPIEKTISKAKGQPREPQVYTLPPSREEMTKNQVSLTCLVKGFYPSDIAVEWESNGQPENNYKTTKKKLDSDGSFFLYSKLTVDKSRWQQGNVFSCSVMHEALHNHYTQKSLSLSPGK light 1: QTVVTQEPSLTVSPGGTVTLTCGSSTGAVTTSNYANWVQEKPGQAPRGLIGGTNKRAPWTPARFSGSLLGGKAALTITGAQAEDEADYYCALWYSNLWVFGGGTKLTVLGKLVTMEIKRTVAAPSVFIFPPSDEQLKSGTASVVCLLNNFYPREAKVQWKVDNALQSGNSQESVTEQDSKDSTYSLSSTLTLSKADYEKHKVYTCEVTHQGLSSPVTKSFNRGEC heavy 2: not shown light 2: DIQMTQSPSSLSASVGDRVTITCRASQDVNTAVAWYQQKPGKAPKLLIYSASFLYSGVPSRFSGSRSGTDFTLTISSLQPEDFATYYCQQHYTTPPTFGQGTKLVTMEIKRTVAAPSVFICPPSDEQLKSGTASVVCLLNNFYPREAKVQWKVDNALQSGNSQESVTEQDSKDSTYSLSSTLTLSKADYEKHKVYTCEVTHQGLSSPVTKSFNRGES",0.045
2,抗Her2×抗CD3双特异性抗体MutC+ER (bispecific antibody) chain 1: EVQLVESGGGLVQPGGSLRLSCAASGFTFNTYAMNWVRQAPGKGLEWVARIRSKYNNYATYYADSVKDRFTISRDDSKNSLYLQMNSLKTEDTAVYYCARHGNFGNSYVSWFAYWGQGTLVTVSSISSASTKGPSVFPLAPSSKSTSGGTAALGCLVKDYFPEPVTVSWNSGALTSGVHTFPAVLQSSGLYSLSSVVTVPSSSLGTQTYICNVNHKPSNTKVDKKVEPESCDKTHTCPPCPAPELLGGPSVFLFPPKPKDTLMISRTPEVTCVVVDVSHEDPEVKFNWYVDGVEVHNAKTKPREEQYNSTYRVVSVLTVLHQDWLNGKEYKCKVSNKALPAPIEKTISKAKGQPREPQVYTLPPSREEMTKNQVSLTCLVKGFYPSDIAVEWESNGQPENNYKTTKKKLDSDGSFFLYSKLTVDKSRWQQGNVFSCSVMHEALHNHYTQKSLSLSPGK chain 2: QTVVTQEPSLTVSPGGTVTLTCGSSTGAVTTSNYANWVQEKPGQAPRGLIGGTNKRAPWTPARFSGSLLGGKAALTITGAQAEDEADYYCALWYSNLWVFGGGTKLTVLGKLVTMEIKRTVAAPSVFIFPPSDEQLKSGTASVVCLLNNFYPREAKVQWKVDNALQSGNSQESVTEQDSKDSTYSLSSTLTLSKADYEKHKVYTCEVTHQGLSSPVTKSFNRGRC chain 3: not shown chain 4: DIQMTQSPSSLSASVGDRVTITCRASQDVNTAVAWYQQKPGKAPKLLIYSASFLYSGVPSRFSGSRSGTDFTLTISSLQPEDFATYYCQQHYTTPPTFGQGTKLVTMEIKRTVAAPSVFICPPSDEQLKSGTASVVCLLNNFYPREAKVQWKVDNALQSGNSQESVTEQDSKDSTYSLSSTLTLSKADYEKHKVYTCEVTHQGLSSPVTKSFNRGES,0.055
3,"抗Her2×抗CD3双特异性抗体MutC-ER (bispecific antibody, human IgG1, kappa) heavy 1: EVQLVESGGGLVQPGGSLRLSCAASGFTFNTYAMNWVRQAPGKGLEWVARIRSKYNNYATYYADSVKDRFTISRDDSKNSLYLQMNSLKTEDTAVYYCARHGNFGNSYVSWFAYWGQGTLVTVSSISSASTKGPSVFPLAPSSKSTSGGTAALGCLVKDYFPEPVTVSWNSGALTSGVHTFPAVLQSSGLYSLSSVVTVPSSSLGTQTYICNVNHKPSNTKVDKKVEPKSCDKTHTCPPCPAPELLGGPSVFLFPPKPKDTLMISRTPEVTCVVVDVSHEDPEVKFNWYVDGVEVHNAKTKPREEQYNSTYRVVSVLTVLHQDWLNGKEYKCKVSNKALPAPIEKTISKAKGQPREPQVYTLPPSREEMTKNQVSLTCLVKGFYPSDIAVEWESNGQPENNYKTTKKKLDSDGSFFLYSKLTVDKSRWQQGNVFSCSVMHEALHNHYTQKSLSLSPGK light 1: QTVVTQEPSLTVSPGGTVTLTCGSSTGAVTTSNYANWVQEKPGQAPRGLIGGTNKRAPWTPARFSGSLLGGKAALTITGAQAEDEADYYCALWYSNLWVFGGGTKLTVLGKLVTMEIKRTVAAPSVFIFPPSDEQLKSGTASVVCLLNNFYPREAKVQWKVDNALQSGNSQESVTEQDSKDSTYSLSSTLTLSKADYEKHKVYTCEVTHQGLSSPVTKSFNRGEC heavy 2: not shown light 2: DIQMTQSPSSLSASVGDRVTITCRASQDVNTAVAWYQQKPGKAPKLLIYSASFLYSGVPSRFSGSRSGTDFTLTISSLQPEDFATYYCQQHYTTPPTFGQGTKLVTMEIKRTVAAPSVFICPPSDEQLKSGTASVVCLLNNFYPREAKVQWKVDNALQSGNSQESVTEQDSKDSTYSLSSTLTLSKADYEKHKVYTCEVTHQGLSSPVTKSFNRGRS",0.034
